From patent US20040132067, “Systematic evolution of ligands by exponential enrichment: photoselection of nucleic acid ligands and solution selex” (SOMALOGIC, INC., published 2004)

What was measured:
HIV-1 Rev [1] = target: T1, HIV-1 Rev (Human immunodeficiency virus 1, UniProt P04618 P04618:1-116); assay: photo-independent crosslinking seen at 50 nM Rev in 1:100 weight ratio with human nuclear extract
Description: Trunc24 (SEQ ID NO:59) photo-independent crosslinking with HIV-1 Rev in the presence of human nuclear extracts was determined as follows: Trunc24 RNA, nuclear extracts, and Rev protein were combined and incubated on ice for 10 min. Samples were mixed 1:1 with 8 M urea loading buffer and placed on a 7 M urea, 8% polyacrylamide gel for analysis, XL indicates the nucleoprotein complex, RNA indicates free trunc24 RNA.

HIV-1 Rev [2] = target: T1, HIV-1 Rev; assay: photocrosslinking 325 nm, 4 min, 500 nM protein, 20 ug tRNA, 37 C
From the text: The sequences are aligned for maximum homology to the 6a sequence (SEQ ID NO:5). Underlines represent potential base pairing as indicted by computer RNA folding algorithms. Dashed underlines represent the 6a ligand “bubble” motif. Sequences flanked by underline represent either loop or bulge regions. Dashes are placed to maximize alignment with 6a. * denotes that two isolates were obtained. +indicates laser independent crosslinking and—denotes the lack of laser independent crosslinking to HIV-1 Rev. […] FIGS. 18 and 19 show the sequence of Trunc2 (SEQ ID NO:58) and Trunc24 (SEQ-ID NO:59) and the specificity results. 500 nM protein, 20 μg tRNA, and approximately 1 nM of kinased trunc2 RNA were incubated for 10 min. at 37° C. and irradiated for 4 min at 325 nm. t2-trunc2 RNA irradiated without added protein; t2Rev1/O′-trunc2 RNA, HIV-1 Rev protein and 0 min. of irradiation; t2/Rev1/4′-trunc2 RNA, HIV-1 Rev protein, adn 4 min. of irradiation; t2/Rev1/4′/PK-trunc2 RNA, HIV-1 Rev protein, 4 min. or irradiation, and proteinase K treated as in FIG. 1; t2/Rev2/4′-trunc2 RNA, HIV-2 Rev protein, and 4 min. of irradiation; t2/Tat/4′-trunc2 RNA, HIV-1 Tat protein, and 4 min. of irradiation. R-free RNA; XL-crosslinked nucleoprotein complex.

T1 sequence (P04618 whole entry, one chain of several): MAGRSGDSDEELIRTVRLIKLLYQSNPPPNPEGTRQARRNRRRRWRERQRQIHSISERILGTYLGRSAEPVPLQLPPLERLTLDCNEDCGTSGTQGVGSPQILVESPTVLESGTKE

GGGGAUUAACAGGCACACCUGUUAACCCU (ssRNA) [trunc24]: binds (HIV-1 Rev [1]).

GGGUGUAUGAAACACCACGUGUGUUUCCACUC (ssRNA, 5-iodouracil at all U) [trunc2]: binds (HIV-1 Rev [2]).
